Experimental data from PMC8609364, “A Selective Tether Recruits Activated Response Regulator CheB to Its Chemoreceptor Substrate” (mBio, 2021).

B1: methylesterase/deamidase CheB from E. coli, low-activity, unphosphorylated form (enzyme, UniProt P07330 1-349, looked up)
chain: MSKIRVLSVDDSALMRQIMTEIINSHSDMEMVATAPDPLVARDLIKKFNPDVLTLDVEMPRMDGLDFLEKLMRLRPMPVVMVSSLTGKGSEVTLRALELGAIDFVTKPQLGIREGMLAYNEMIAEKVRTAAKASLAAHKPLSAPTTLKAGPLLSSEKLIAIGASTGGTEAIRHVLQPLPLSSPALLITQHMPPGFTRSFADRLNKLCQIGVKEAEDGERVLPGHAYIAPGDRHMELSRSGANYQIKIHDGPAVNRHRPSVDVLFHSVAKQAGRNAVGVILTGMGNDGAAGMLAMRQAGAWTLAQNEASCVVFGMPREAINMGGVCEVVDLSQVSQQMLAKISAGQAIRI
notes: CheB methylesterase/deamidase of E. coli, unphosphorylated, from plasmid pCW/cheB; measured with 2 mM DTT in the buffer; also called low-activity CheB; unmodified CheB; source: E. coli K-12 RP3098 with pCW/cheB, purified
B2: CheBC, catalytic domain of E. coli CheB lacking the regulatory domain and linker (domain or fragment)
chain: LSSEKLIAIGASTGGTEAIRHVLQPLPLSSPALLITQHMPPGFTRSFADRLNKLCQIGVKEAEDGERVLPGHAYIAPGDRHMELSRSGANYQIKIHDGPAVNRHRPSVDVLFHSVAKQAGRNAVGVILTGMGNDGAAGMLAMRQAGAWTLAQNEASCVVFGMPREAINMGGVCEVVDLSQVSQQMLAKISAGQAIRI

What was measured:
[1] = test system: pentapeptide-bearing Tar4E and Tar4Q; assay: CheB binding to pentapeptide-bearing Tar, 4E and 4Q (biolayer interferometry); parameters: species or system E. coli; settings: Tar4E versus Tar4Q
Procedure: (§1) We determined the kinetics of association and dissociation of methylesterase/deamidase CheB in its low- and high-activity form with the E. coli aspartate chemoreceptor Tar using biolayer interferometry ([22], [23]) and isolated receptor homodimers in Nanodiscs ([24], [25]). Apparent rate constants of association and dissociation were derived from global fits of time courses for binding and release (see Fig. S1 in the supplemental material). Equilibrium dissociation constants were calculated from those apparent rate constants.
E. coli CheB and Salmonella CheB D56C/C207S/C309S and D56C/S164A/C207S/C309S were purified as described previously ([11]). CheBC (amino acids [aa] 153 to 349) was purified using the procedure of West et al. ([40]), except that Bio-Gel P-60, was not used. […] The extent of modification was 59% for the former and 60% for the latter determined by reversed phase chromatography essentially as described previously ([26]) and confirmed by Nano LC-Nanospray QTQF mass spectroscopy. […]
Kinetics of CheB association and dissociation with Nanodisc-embedded Tar biotinylated at L378C were determined using biolayer interferometry ([22], [23]) as measured by a BLItz instrument (ForteBio, Menlo Park, CA, USA) and described in reference. […]

[2] = test system: Tar4EΔpp (chemoreceptor Tar, all-glutamyl, lacking NWETF); assay: CheB binding to Tar4EΔpp (pentapeptide-lacking) in Nanodiscs (biolayer interferometry); parameters: species or system E. coli; settings: Tar 4E, pentapeptide no, BLI, pH 7.5, 2% BSA (plus 2 mM DTT for CheB and CheBc); for dwell time (1/koff): calculated from mean koff; for dwell time (1/koff) / KA (equilibrium association constant): propagated SD; for KA (equilibrium association constant): calculated from mean kon and koff; for kon (apparent association rate constant): mean ± SD of at least three independent experiments
Procedure: as §1
(§2) E. coli CheB and Salmonella CheB D56C/C207S/C309S and D56C/S164A/C207S/C309S were purified as described previously ([11]). CheBC (amino acids [aa] 153 to 349) was purified using the procedure of West et al. ([40]), except that Bio-Gel P-60, was not used. CheB D56C/C207S/C309S and CheB D56C/S164A/C207S/C309S were modified to create a disulfide-linked phosphoryl group on D56C following the procedure described in reference but using a 10-fold molar excess of DTNB [Ellman’s reagent, 5,5′-disulfanediylbis(2-nitrobenzoic acid)] rather than 90-fold and a 50-fold molar excess Na3SPO3 rather than 1,000-fold. The extent of modification was 59% for the former and 60% for the latter determined by reversed phase chromatography essentially as described previously ([26]) and confirmed by Nano LC-Nanospray QTQF mass spectroscopy. Membrane scaffold protein MSP1D1(-) ([41]) was purified as described previously ([25]). Tar4E L378C, Tar4Q L378C, Tar4EΔpp-6H L378C, and Tar4QΔpp-6H L378C were purified, incorporated into Nanodiscs at approximately one receptor dimer per disc, and biotinylated at L378C as described previously ([23], [42]). […] These activities were confirmed for representative samples used in our analyses. Receptor-containing Nanodiscs were dialyzed into 50 mM Tris-HCl (pH 7.5), 0.5 mM EDTA, 10% (wt/vol) glycerol, and 100 mM NaCl. Prior to a binding experiment, the solution was changed using a spin desalting column to 50 mM Tris-HCl, 10% (wt/vol) glycerol, 5 mM MgCl2, and 50 mM KCl (pH 7.5).
(§3) Kinetics of CheB association and dissociation with Nanodisc-embedded Tar biotinylated at L378C were determined using biolayer interferometry ([22], [23]) as measured by a BLItz instrument (ForteBio, Menlo Park, CA, USA) and described in reference. Representative time course experiments are shown in Fig. S1 in the supplemental material. Measurements for CheB-P* and CheB-P*-I were in 50 mM Tris-HCl (pH 7.5), 10% (wt/vol) glycerol, 5 mM MgCl2, 50 mM KCl, and 2% (wt/vol) bovine serum albumin (BSA). Measurements for CheB and CheBc were in the same solution plus 2 mM dithiothreitol (DTT).
(§4) Using BLItz software, response curves were fit globally to a 1:1 binding model to yield apparent association rate constants (kon) and dissociation rate constants (koff). For analysis of complex patterns of binding, in which more than one binding reaction appeared to be contributing, for instance one that appeared saturable and another nonspecific, nonsaturable, the data were exported and fit globally to nonlinear exponential functions using OriginPro 2017. The best fits to the data were obtained using the following functions. R=R0 + Req[a(e^−kd1 t) + b(e^−kd2 t)] was used to globally fit dissociation time courses, with R being the response (in nanometers), a + b = 1, with a and b being the portion of the signal (in nanometers) for fast and slow phases, respectively, kd1 and kd2 being the respective dissociation rate constants, and Req being the response at equilibrium. Association data were fit using apparent dissociation rate constants kd1 and kd2, relevant CheB concentrations (C) and the equation R=R0 + Req[a(1 − e^−(ka1 C+kd1)t) + b(1 − e^−(ka2 C+kd2)t)]

[3] = molecular target: Tar4Q (chemoreceptor Tar, all-glutaminyl, pentapeptide-bearing); assay: CheB binding to pentapeptide-bearing Tar4Q in Nanodiscs (biolayer interferometry); parameters: species or system E. coli; settings: Tar 4Q, pentapeptide yes, BLI; for dwell time (1/koff) / KA (equilibrium association constant) / kon (apparent association rate constant): pH 7.5, 2% BSA (plus 2 mM DTT for CheB and CheBc); for dwell time (1/koff): calculated from mean koff; for kon (apparent association rate constant): mean ± SD of at least three independent experiments
Procedure: as §1, §2, §3, §4

[4] = test system: Tar4QΔpp (chemoreceptor Tar, all-glutaminyl, lacking NWETF); assay: CheB binding to Tar4QΔpp (pentapeptide-lacking) in Nanodiscs (biolayer interferometry); parameters: species or system E. coli; settings: Tar 4Q, pentapeptide no, BLI, pH 7.5, 2% BSA (plus 2 mM DTT for CheB and CheBc); for dwell time (1/koff): calculated from mean koff; for dwell time (1/koff) / KA (equilibrium association constant): propagated SD; for KA (equilibrium association constant): calculated from mean kon and koff; for kon (apparent association rate constant): mean ± SD of at least three independent experiments
Procedure: as §1, §2, §3, §4

[5] = molecular target: Tar4EΔpp-6H L378C, E. coli Tar lacking the carboxyl-terminal pentapeptide, all-glutamyl form, homodimer in … (E. coli, UniProt P07017 1-553, L378C, biotinylated at L378C); assay: SPR
[6] = molecular target: Tar4QΔpp-6H L378C, E. coli Tar lacking the carboxyl-terminal pentapeptide, all-glutaminyl form, homodimer in … (E. coli, UniProt P07017 1-553, L378C, biotinylated at L378C); assay: SPR
[7] = molecular target: Tar4E L378C, E. coli aspartate chemoreceptor Tar, all-glutamyl form with carboxyl-terminal pentapeptide, … (E. coli, UniProt P07017 1-553, L378C, biotinylated at L378C); assay: SPR
[8] = molecular target: Tar4Q L378C, E. coli aspartate chemoreceptor Tar, all-glutaminyl form with carboxyl-terminal pentapeptide, … (E. coli, UniProt P07017 1-553, L378C, biotinylated at L378C); assay: SPR
[9] = calculated from mean kon and koff, propagated SD

Molecule	effect of receptor signaling state on binding [1]	dwell time (1/koff) [2]	KA (equilibrium association constant) [2]	kon (apparent association rate constant) [2]	Kd ([3]; 50 mM Tris-HCl pH 7.5, 10% glycerol, 5 mM MgCl2, 50 mM KCl, 2% BSA (plus 2 mM DTT for CheB and CheBc), calculated from mean kon and koff, propagated SD, read-out: KD (equilibrium dissociation constant))	dwell time (1/koff) ([3]; propagated SD)	KA (equilibrium association constant) [3, 9]	kon (apparent association rate constant) [3]	dwell time (1/koff) [4]	KA (equilibrium association constant) [4]	kon (apparent association rate constant) [4]	Ka [5]	Ka [6]	Ka [7]	Ka [8]
B1	the signaling state of the chemoreceptor coiled-coil body did not influence the binding of its pentapeptide to low-activity CheB	1.6 ± 0.2 s	1.2 ± 0.1 10^3 M^-1	750 ± 8 M⁻¹ s⁻¹	160 ± 30 µM	2.2 ± 0.1 s	6.3 ± 1 10^3 M^-1	2,900 ± 480 M^-1s^-1	1.5 ± 0.05 s	1.7 ± 0.4 10^3 M^-1	1,100 ± 260 M^-1s^-1	1200 M⁻¹	1700 M⁻¹	4400 M⁻¹	6300 M⁻¹
B2	–	2.3 ± 0.2 s	1.5 ± 0.3 10^3 M^-1	670 ± 140 M⁻¹ s⁻¹	–	2.1 ± 0.4 s	0.7 ± 0.2 10^3 M^-1	350 ± 60 M⁻¹ s⁻¹	1.7 ± 0.1 s	0.8 ± 0.1 10^3 M^-1	480 ± 20 M⁻¹ s⁻¹	1500 M⁻¹	800 M⁻¹	1700 M⁻¹	700 M⁻¹
